For one substance, Kd, koff and kon results are on record in publication PMC5932363.

In this assay the target is Proteinase 3 (PR3), purified (UniProt P24158). The assay is described as follows: SPR; BIAcore 3000; PR3 immobilised on a CM5 chip by amine coupling; C1q, gC1q or cC1q as soluble analytes; 50 mM Tris, 150 mM NaCl, 2 mM Ca2+, 0.005% surfactant P20, pH 7.4; flow 20 µl/min; global fit to a 1:1 Langmuir model; apparent KD from koff/kon.
Proteinase 3 (PR3), purified, sequence (P24158 28-248): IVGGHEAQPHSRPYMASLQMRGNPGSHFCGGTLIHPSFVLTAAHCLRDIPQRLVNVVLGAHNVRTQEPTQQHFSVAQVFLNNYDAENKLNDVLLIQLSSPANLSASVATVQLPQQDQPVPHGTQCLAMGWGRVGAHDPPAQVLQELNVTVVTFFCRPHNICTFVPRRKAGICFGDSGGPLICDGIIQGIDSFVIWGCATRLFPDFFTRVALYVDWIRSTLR

Broadly, the koff is the first-order rate constant of dissociation. Broadly, the kon is the second-order rate constant of association. In the case of “globular region of C1q (gC1q) (domain or fragment)”, the Kd was determined as 400 nM, the koff was found to be 0.0072 s⁻¹ and the kon turned out to be 18000 M⁻¹ s⁻¹.
